Results on 10 molecules are retold here after patent publication US20240368233A1 (University of Washington, published 2024).

One may read the Kd as the concentration at which binding is half-saturated. The koff is the rate constant with which the complex falls apart. Read a low koff as a long-lived complex. For orientation: kon means the rate constant with which the complex forms. Read a low kon as slow association.

The target of data set [1] is T1, LHD274 chainB, split luciferase reporter construct.
T1 construct: not shown: N-terminal Strep-tag and sfGFP; GS-linker and smBiT or lgBiT
T1 chain: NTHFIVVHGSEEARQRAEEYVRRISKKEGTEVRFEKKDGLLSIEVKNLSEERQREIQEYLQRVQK
Description: split luciferase association kinetics, 1 nM vs. 10 nM, in lysate. The method, then:
(§1) Assays were performed in 20 mM sodium phosphate, 100 mM NaCl, pH 7.4, 0.05% v/v Tween 20. Reactions were assembled in 96 well plates (Corning, cat #3686) in the presence of Nano-Glo™ substrate (Promega, cat. #N1130) diluted 100× or 500× for kinetics and endpoint measurements respectively (see supplement for detailed information). Luminescence was recorded on a Synergy Neo2 plate reader (BioTek). Kinetic assays were performed under pseudo first-order conditions, with the final concentration of one protein at 1 nM and the other at 10 nM. Dead times between substrate addition and data acquisition were typically 15-30 s. For long kinetic measurements (FIG. 11A), mastermixes of the protein complexes were made and aliquots were sampled at regular intervals. Data were fitted to a single exponential decay function: […]

In data set [2] the target is T2, LHD202 chainB.
T2 construct: also called LHD202B
T2 chain: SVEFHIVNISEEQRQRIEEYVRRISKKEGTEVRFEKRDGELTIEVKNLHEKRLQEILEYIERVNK
Description: BLI, steady state fit.

In data set [3] the target is T2, LHD202 chainB. Put plainly: BLI, global kinetic fit, 1:1 model. For orientation: In BLI a coated tip is dipped into the sample, and binding shifts an interference pattern.
Data set [4] has as its target T3, LHD202 chainB, split luciferase reporter construct.
T3 construct: not shown: N-terminal Strep-tag and sfGFP; GS-linker and smBiT or lgBiT
T3 chain: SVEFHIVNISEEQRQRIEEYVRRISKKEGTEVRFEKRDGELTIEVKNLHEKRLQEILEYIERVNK
Put plainly: split luciferase association kinetics, 1 nM vs. 10 nM, in lysate. The method, then:
as §1

The target in data set [5] is T4, LHD29 chainB, split luciferase reporter construct.
T4 construct: not shown: N-terminal Strep-tag and sfGFP; GS-linker and smBiT or lgBiT
T4 chain: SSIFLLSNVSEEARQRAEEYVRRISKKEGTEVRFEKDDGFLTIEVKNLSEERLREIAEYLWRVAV
Put plainly: split luciferase equilibrium binding in lysate.

Data set [6] concerns the target T4, LHD29 chainB, split luciferase reporter …. Description: split luciferase association kinetics, 1 nM vs. 10 nM, in lysate. How it is done: as §1
Data set [7] has the same target. Put plainly: split luciferase; affinity of the interface as measured in isolation, used to simulate the ternary complex ABC.
Data set [8] addresses T5, LHD206 chainB, split luciferase reporter construct.
T5 construct: not shown: N-terminal Strep-tag and sfGFP; GS-linker and smBiT or lgBiT
T5 chain: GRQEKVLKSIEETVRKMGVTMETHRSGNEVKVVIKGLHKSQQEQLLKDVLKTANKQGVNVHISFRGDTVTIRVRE
Put plainly: split luciferase equilibrium binding in lysate.

Data set [9] deals with T5, LHD206 chainB, split luciferase …. Put plainly: split luciferase association kinetics, 1 nM vs. 10 nM, in lysate. The method, then:
as §1

Data set [10] deals with T6, 317B.
T6 construct: also called LHD317 B; LHD317B
T6 chain: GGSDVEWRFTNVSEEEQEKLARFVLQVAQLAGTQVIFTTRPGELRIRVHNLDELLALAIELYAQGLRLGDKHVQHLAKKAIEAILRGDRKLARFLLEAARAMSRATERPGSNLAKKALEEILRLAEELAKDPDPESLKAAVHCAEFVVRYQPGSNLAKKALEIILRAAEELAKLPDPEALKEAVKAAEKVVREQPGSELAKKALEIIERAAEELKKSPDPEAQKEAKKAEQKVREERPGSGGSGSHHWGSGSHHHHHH
Put plainly: BLI, steady state fit.

The target in data set [11] is T6, 317B. Put plainly: BLI, global kinetic fit, 1:1 model.
Data set [12] concerns the molecule itself. Description: SEC titration of the protomer alone at several injection concentrations (Superdex 75, normalised A230); self-association.
The target of data set [13] is T7, LHD101 chainB, split luciferase reporter construct.
T7 construct: not shown: N-terminal Strep-tag and sfGFP; GS-linker and smBiT or lgBiT
T7 chain: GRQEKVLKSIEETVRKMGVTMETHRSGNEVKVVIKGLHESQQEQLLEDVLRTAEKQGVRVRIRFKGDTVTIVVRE
Put plainly: split luciferase equilibrium binding in lysate.

Data set [14] has as its target T7, LHD101 chainB, split luciferase …. Description: split luciferase association kinetics, 1 nM vs. 10 nM, in lysate. How it is done: as §1
For data set [15] the target is unchanged. Description: split luciferase; affinity of the interface as measured in isolation, used to simulate the ternary complex ABC.
Data set [16] has the same target. Description: split luciferase equilibrium titration in E. coli lysate, constant partner at 1 nM; first-named construct read as the titrated one; no unit beside the number, M from the axis '[Titrated] / M'.
The target of data set [17] is T8, LHD101 chainB.
T8 construct: also called LHD101B
T8 chain: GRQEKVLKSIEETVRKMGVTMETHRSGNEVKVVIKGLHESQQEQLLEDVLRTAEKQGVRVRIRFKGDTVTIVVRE
Put plainly: BLI. The source says:
FIG. 8A-E. Characterization LHD binding in vitro. A: Designed models heterodimers (top row). Middle row, SEC binding experiments performed on a Superdex™ 75 column. Bottom row, biolayer interferometry kinetic binding traces. […] C: Kinetic binding traces from BLI. Equilibrium responses were used to fit equilibrium binding curves D: Equilibrium binding curves of LHDs from biolayer interferometry binding assays with data from C. […] Biotinylated unfused protomers were immobilized on streptavidin coated biosensors.
Biolayer interferometry experiments were performed on an OctetRED96 BLI system (ForteBio, Menlo Park, CA). Streptavidin coated biosensors were first equilibrated for at least 10 minutes in Octet buffer (10 mM HEPES pH 7.4, 150 mM NaCl, 3 mM EDTA, 0.05% Surfactant P20) supplemented with 1 mg/ml Bovine Serum Albumin (SigmaAldrich). Enzymatically biotinylated designs were immobilized onto the biosensors by dipping the biosensors into a solution with 10-50 nM protein for 30-120 s. This was followed by dipping in fresh octet buffer to establish a baseline for 120 s. Titration experiments were performed at 25° C. while rotating at 1,000 r.p.m. […]

Data set [18] addresses T8, LHD101 chainB. Description: BLI, steady state fit.
Data set [19] deals with the molecule itself. Put plainly: SEC titration (self-association).
Data set [20] deals with T8, LHD101 chainB. Description: BLI, global kinetic fit, 1:1 model.
In data set [21] the target is T8, LHD101 chainB. Put plainly: BLI, dissociation rate constant (kdis). The method, then: Biolayer interferometry experiments were performed on an OctetRED96 BLI system (ForteBio, Menlo Park, CA). Streptavidin coated biosensors were first equilibrated for at least 10 minutes in Octet buffer (10 mM HEPES pH 7.4, 150 mM NaCl, 3 mM EDTA, 0.05% Surfactant P20) supplemented with 1 mg/ml Bovine Serum Albumin (SigmaAldrich). Enzymatically biotinylated designs were immobilized onto the biosensors by dipping the biosensors into a solution with 10-50 nM protein for 30-120 s. This was followed by dipping in fresh octet buffer to establish a baseline for 120 s. Titration experiments were performed at 25° C. while rotating at 1,000 r.p.m. Association of designs was allowed by dipping biosensors in solutions containing designed protein diluted in octet buffer until equilibrium was approached followed by dissociation by dipping the biosensors into fresh buffer solution in order to monitor the dissociation kinetics. Steady-state and global kinetic fits were performed using the manufacturer's software (Data Analysis 9.1) assuming a 1:1 binding model.

In data set [22] the target is T9, 101B82, split luciferase reporter construct.
T9 construct: not shown: N-terminal Strep-tag and sfGFP; GS-linker and smBiT or lgBiT
T9 chain: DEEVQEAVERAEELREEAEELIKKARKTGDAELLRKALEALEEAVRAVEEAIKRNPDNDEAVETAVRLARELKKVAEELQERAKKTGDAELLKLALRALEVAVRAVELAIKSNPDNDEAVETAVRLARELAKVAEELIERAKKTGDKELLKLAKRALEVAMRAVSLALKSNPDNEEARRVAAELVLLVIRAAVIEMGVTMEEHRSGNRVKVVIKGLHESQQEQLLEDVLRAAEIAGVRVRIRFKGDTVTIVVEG
Put plainly: split luciferase equilibrium binding in lysate.

For data set [23], the target named is T10, 101B4, split luciferase reporter construct.
T10 construct: not shown: N-terminal Strep-tag and sfGFP; GS-linker and smBiT or lgBiT
T10 chain: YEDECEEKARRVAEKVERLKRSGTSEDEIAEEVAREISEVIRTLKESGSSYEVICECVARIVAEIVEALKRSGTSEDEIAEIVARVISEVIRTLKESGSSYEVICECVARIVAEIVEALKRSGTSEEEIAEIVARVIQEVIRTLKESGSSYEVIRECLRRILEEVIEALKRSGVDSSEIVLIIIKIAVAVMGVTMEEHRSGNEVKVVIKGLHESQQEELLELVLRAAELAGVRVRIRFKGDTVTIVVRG
Description: split luciferase equilibrium binding in lysate.

For data set [24], the target named is T10, 101B4, split luciferase reporter …. Description: split luciferase association kinetics, 1 nM vs. 10 nM, in lysate. The method, then:
as §1

B1: LHD274 chainA, split luciferase reporter construct (designed binder)
chain: TTNFHLINGSEEARQRIEEYVRRISKKEGTEVHFEKSDGTLEIRVKNLHEKREREIKEYIERVLL
notes: not shown: N-terminal Strep-tag and sfGFP; GS-linker and smBiT or lgBiT
With B1, the kobs in data set [1] was 0.0014 s⁻¹.

B2: LHD202 chainA (designed binder)
chain: GRQEKVLKSIEETVRKMGVTMETHRSGNKVKVVIKGLHESQQEQLRKDVHETLRKQGVVAVTQKHGDTVTIYVTE
notes: also called LHD202A
In turn, B2 showed a Kd with LHD202 chainB [2] of 2400 nM. In the data set with LHD202 chainB [3], this molecule came in with a Kd of 4800 nM, a koff of 0.29 s⁻¹ and a kon of 60000 M⁻¹ s⁻¹.

B3: LHD202 chainA, split luciferase reporter construct (designed binder)
chain: GRQEKVLKSIEETVRKMGVTMETHRSGNKVKVVIKGLHESQQEQLRKDVHETLRKQGVVAVTQKHGDTVTIYVTE
notes: as for B1
On to B3, for which, in data set [4], the kobs amounted to 0.018 s⁻¹.

B4: LHD29 chainA, split luciferase reporter construct (designed binder)
chain: TWQWVLINISEEARQRIEEYVRRISKKEGTEVHFEKDDGVLHIRVKNLHEKRAREIHEYAKRVIL
notes: as for B1
Turning to B4, the Kd in data set [5] was 60 nM; in data set [7], 50 nM. Moreover, the kobs in [6] is 0.0003 s⁻¹.

B5: LHD206 chainA, split luciferase reporter construct (designed binder)
chain: TDELLERLRQLFEELHERGTEIVVEVHINGRKTEIEVQGIDKRLLKIILEVIREEIEREGSSEVEVNVHSGGQTWTFNEK
notes: as for B1
Molecule B5 displayed a Kd in data set [8] of 11 nM. The kobs in [9] was 0.01 s⁻¹.

B6: LHD317 chainA (designed binder)
chain: GRQEKVLKSIEETVRKMGVRMLTHRGGNAVIVVIEGLHPSQAEQLLRDVHRTAKKQGVTVHLVFTGDIVVIMVVVGASEEEQEEMHRLVREIAEALHEAKRKGANEEQLEQLLRELLERAEREG
notes: also called LHD317A
For B6, in the data set with 317B [10], the Kd worked out at 56 nM. In the data set with 317B [11], this molecule had a Kd of 34.7 nM, a koff of 0.0051 s⁻¹ and a kon of 150000 M⁻¹ s⁻¹. Also, the binding result in [12] is listed as “no binding (tested: 57.4 uM)”.

B7: LHD101 chainA, split luciferase reporter construct (designed binder)
chain: GRQEKVLKSIEETVRKMGVTMETHRSGNEVKVVIKGLHIKQQRQLYRDVRETSKKQGVETEIEVEGDTVTIVVRE
notes: as for B1
Regarding B7, the values for the Kd in data set [13], in [15] and in data set [16] were 20 nM, 5 nM and 37 nM, respectively. For the same molecule, in data set [14], the kobs turned out to be 0.04 s⁻¹.

B8: LHD101 chainA (designed binder)
chain: GRQEKVLKSIEETVRKMGVTMETHRSGNEVKVVIKGLHIKQQRQLYRDVRETSKKQGVETEIEVEGDTVTIVVRE
notes: also called LHD101A
On to B8, for which the figures for the kon in the data set with LHD101 chainB [17] and with LHD101 chainB [20] were 1e+06 M⁻¹ s⁻¹ and 2.2e+06 M⁻¹ s⁻¹, respectively. The dissociation constant Kd in the data set with LHD101 chainB [18] was 9.5 nM; with LHD101 chainB [20], 1.9 nM. For the same molecule, in [19], the binding result is given as “no binding (tested: above 100 µM)”. Moreover, the koff is 0.0043 s⁻¹ with LHD101 chainB [20] and 0.0214 s⁻¹ in the data set with LHD101 chainB [21].

B9: 101A21, split luciferase reporter construct (designed binder)
chain: SEKEKVEELAQRIREQLPDTELAREAQELADEARKSDDSEALKVVYLALRIVQQLPDTELAREALELAKEAVKSTDSEKLKVVYLALRVVQQLPDTEEARKALEIAKEAVKADAQILLAIARAVLKMGVEMEVHPSGNEVKVVIKGLHIKQQRQLYRDVREAAKKAGVEVEIEVEGDTVTIVVRE
notes: also called LHD101-A21-B82 (A21 half); not shown: N-terminal Strep-tag and sfGFP; GS-linker and smBiT or lgBiT
For B9, the Kd in data set [22] came out at 11 nM.

B10: 101A53, split luciferase reporter construct (designed binder)
chain: NDEKEKLKELLKRAEELAKSPDPEDLKEAVRLAEEVVRERPGSNLAKKALEIILRAAEELAKLPDPEALKEAVKAAEKVVREQPGSNLAKKALEIILRAAAALANLPDPESRKEADKAADKVRREQPGSELAVVAAIISAVARMGVKMELHPSGNEVKVVIKGLHIKQQRQLYRDVREAAKKAGVEVEIEVEGDTVTIVVRG
notes: also called LHD101-A53-B4 (A53 half); not shown: N-terminal Strep-tag and sfGFP; GS-linker and smBiT or lgBiT
B10 came in with a Kd in data set [23] of 4 nM. The kobs in data set [24] came out at 0.026 s⁻¹.
